Test results taken from the Immune Epitope Database (IEDB).
Values belong to the sequence of their own block, whether it stands above or below them.

Key:
HLA-A*02:06 = assay: IEDB peptide-MHC binding, purified MHC/competitive/radioactivity; filed as Kd, often an IC50 or EC50 that approximates it; ≥ and ≤ were set here for values at or beyond the usual limits of such assays
HLA-A*68:02 = assay: as above
HLA-A*02:01 [1] = assay: as above; details: source organism: Trypanosoma cruzi
HLA-A*02:02 = assay: as above; details: source organism: Trypanosoma cruzi
HLA-A*02:03 = assay: as above; details: source organism: Trypanosoma cruzi
HLA-B*54:01 = assay: as above
HLA-B*07:02 [2] = assay: as above
HLA-B*51:01 = assay: as above
HLA-B*53:01 = assay: as above
HLA-B*35:01 = assay: as above
HLA-B*07:02 [3] = assay: IEDB peptide-MHC binding, purified MHC/direct/fluorescence; filed as Kd, often an IC50 or EC50 that approximates it; ≥ and ≤ were set here for values at or beyond the usual limits of such assays; details: source organism: SARS-CoV1
HLA-A*02:01 [4] = assay: as above; details: source organism: SARS-CoV1
HLA-A*69:01 = assay: as above; details: source organism: SARS-CoV1
HLA-A*30:01 = assay: IEDB peptide-MHC binding, purified MHC/competitive/radioactivity; filed as Kd, often an IC50 or EC50 that approximates it; ≥ and ≤ were set here for values at or beyond the usual limits of such assays; details: source organism: Dengue virus 3 Martinique/1243/1999
HLA-B*45:01 = assay: as above
HLA-B*18:01 = assay: as above
HLA-B*40:01 = assay: as above
HLA-B*44:03 = assay: as above
HLA-B*40:02 = assay: as above
HLA-B*44:02 = assay: as above
[5] = source organism: Trypanosoma cruzi
[6] = source organism: Mammarenavirus guanaritoense
[7] = source organism: Dengue virus 4 Philippines/H241/1956
[8] = source organism: SARS coronavirus Tor2
[9] = source organism: Mammarenavirus mopeiaense
[10] = source organism: Triticum aestivum
[11] = source organism: Lymphocytic choriomeningitis virus (strain Armstrong)
[12] = source organism: Mammarenavirus choriomeningitidis

Sequence: LLGLWGLAAL
Kd (HLA-A*02:06; [5]): 144 nM
Kd (HLA-A*68:02; [5]): 5820 nM
Kd (HLA-A*02:01 [1]): 50.7 nM
Kd (HLA-A*02:02): 4 nM
Kd (HLA-A*02:03): 9.38 nM

Sequence: LPNTLVFQA
Kd (HLA-B*54:01; [6]): 8.14 nM
Kd (HLA-B*07:02 [2]; [6]): ≥ 38300 nM
Kd (HLA-B*51:01; [6]): 4400 nM
Kd (HLA-B*53:01; [6]): 1020 nM
Kd (HLA-B*35:01; [6]): 82.8 nM

Sequence: LSMGLIAIAV
Kd (HLA-A*02:06; [7]): 5.23 nM
Kd (HLA-A*68:02; [7]): 588 nM

Sequence: MAIGIVSIL
Kd (HLA-A*68:02; source organism: Dengue virus 1 Brazil/97-11/1997): 2.39 nM

Sequence: MAVGIVSILL
Kd (HLA-A*68:02; source organism: Dengue virus 1 Singapore/S275/1990): 5.58 nM

Sequence: MPASWVMRI
Kd (HLA-B*54:01; [8]): 32 nM
Kd (HLA-B*51:01; [8]): 67.1 nM
Kd (HLA-B*53:01; [8]): 1.24 nM
Kd (HLA-B*35:01; [8]): 206 nM
Kd (HLA-B*07:02 [3]): 508 nM
Kd (HLA-A*02:01 [4]): 8190 nM
Kd (HLA-A*69:01): 17 nM

Sequence: MTGPLVAGGL
Kd (HLA-A*68:02; source organism: Dengue virus 2 Jamaica/1409/1983): 21.6 nM

Sequence: MVHQIFGSA
Kd (HLA-A*30:01): 29.6 nM
Kd (HLA-A*68:02; source organism: Dengue virus 3 Martinique/1243/1999): 16.7 nM

Sequence: NEYRQYLDAY
Kd (HLA-B*45:01; [8]): 4930 nM
Kd (HLA-B*18:01; [8]): 253 nM
Kd (HLA-B*40:01; [8]): ≥ 21900 nM
Kd (HLA-B*44:03; [8]): 83.2 nM
Kd (HLA-B*40:02; [8]): 632 nM
Kd (HLA-B*44:02; [8]): 1990 nM

Sequence: PDFELLLSL
Kd (HLA-B*45:01; [6]): ≥ 38100 nM
Kd (HLA-B*18:01; [6]): 701 nM
Kd (HLA-B*40:01; [6]): 14600 nM
Kd (HLA-B*44:03; [6]): ≥ 35800 nM
Kd (HLA-B*40:02; [6]): 2.18 nM
Kd (HLA-B*44:02; [6]): 7830 nM

Sequence: PELLNNQFGT
Kd (HLA-B*45:01; [9]): ≥ 70000 nM
Kd (HLA-B*18:01; [9]): 16200 nM
Kd (HLA-B*40:01; [9]): ≥ 69500 nM
Kd (HLA-B*44:03; [9]): ≥ 69700 nM
Kd (HLA-B*40:02; [9]): ≥ 27200 nM
Kd (HLA-B*44:02; [9]): ≥ 70200 nM

Kd (HLA-B*54:01; [10]): ≥ 69900 nM
Kd (HLA-B*07:02 [2]; [10]): ≥ 69600 nM
Kd (HLA-B*51:01; [10]): 10400 nM
Kd (HLA-B*53:01; [10]): 1620 nM
Kd (HLA-B*35:01; [10]): 48 nM
Sequence: QPYPQPQPQY

Sequence: REFVATTRTL
Kd (HLA-B*45:01; [11]): ≥ 30500 nM
Kd (HLA-B*18:01; [11]): 14100 nM
Kd (HLA-B*40:01; [11]): 8640 nM
Kd (HLA-B*44:03; [11]): 7560 nM
Kd (HLA-B*40:02; [11]): 69.9 nM
Kd (HLA-B*44:02; [11]): 3180 nM

Sequence: REGLLNYSM
Kd (HLA-B*45:01; [12]): 2460 nM
Kd (HLA-B*18:01; [12]): 148 nM
Kd (HLA-B*40:01; [12]): 1190 nM
Kd (HLA-B*44:03; [12]): 1220 nM
Kd (HLA-B*40:02; [12]): 17.7 nM
Kd (HLA-B*44:02; [12]): 1180 nM
